This is an account of results in US20250382355A1 (Merck Sharp & Dohme, published 2025).

Assay [1] concerns the target T1, SARS-CoV-2 prefusion-stabilized spike protein (SARS-CoV-2-PreS) (SARS-CoV-2, UniProt P0DTC2 14-1208). As to the kind of experiment: ELISA.
The target of assay [2] is SARS-CoV-2 Alpha B.1.1.7 spike on pseudovirus (SARS-CoV-2). The experiment in a line: cell-based or functional assay.
The target of assay [3] is SARS-CoV-2 Beta B.1.351 spike on pseudovirus (SARS-CoV-2). The experiment in a line: cell-based or functional assay.
The target in assay [4] is SARS-CoV-2 Gamma P.1 spike on pseudovirus (SARS-CoV-2). As to the kind of experiment: cell-based or functional assay.
In assay [5] the target is SARS-CoV-2 Omicron spike on pseudovirus (SARS-CoV-2). As to the kind of experiment: cell-based or functional assay.
In assay [6] the target is T1, SARS-CoV-2 prefusion-stabilized spike …. As to the kind of experiment: Biacore, apparent affinity. Background: Surface plasmon resonance follows binding to a sensor surface in real time, without labels.
Assay [7] has as its target T2, Biotinylated CoV2 Spike ECD PreS-AVI protein (SARS-CoV-2, UniProt P0DTC2 14-1208). As to the kind of experiment: Octet binning; competitor 7A9. (In BLI a coated tip is dipped into the sample, and binding shifts an interference pattern.)
For assay [8], the target named is T2, Biotinylated CoV2 Spike ECD PreS-AVI …. As to the kind of experiment: Octet binning; competitor 8E9.
For assay [9] the target is unchanged. As to the kind of experiment: Octet binning; competitor 9B2.
The target is the same in assay [10]. The experiment in a line: Octet binning; competitor 11F8.
The target is the same in assay [11]. As to the kind of experiment: Octet binning; competitor 13C8.
Assay [12] shares this target. As to the kind of experiment: Octet binning; competitor 15H1.
Assay [13] has the same target. As to the kind of experiment: Octet binning; competitor 15H7.
For assay [14] the target is unchanged. The experiment in a line: Octet binning; competitor 1A11.
Assay [15] has the same target. As to the kind of experiment: Octet binning; competitor Std-A.
Assay [16] has the same target. The experiment in a line: Octet binning; competitor Std-B.
The target is the same in assay [17]. The experiment in a line: Octet binning; competitor Std-D.

B1: 9B2 VHH-Fc (Fc fusion)
chain: QVQLVESGGGLVQPGGSLRLSCAASGFTLDNYAIGWFRQAPGKEREGVSCISSSDGDTQYADSVKGRFTISRDNAKNTVYLQMNSLKPEDTAVYYCAVEKVYARSWFFHLCSELDFGSWGQGTQVTVSS
A word on the EC50: it is the concentration at which the effect is half-maximal. Consider B1, for which it took 0.1 nM to reach a half-maximal effect in assay [1] (EC50). For the same molecule, the “pseudovirus neutralization IC50” value in assay [2] amounted to 22 nM; in assay [3], 4.2 nM; in assay [4], 21 nM; in assay [5] it was 52 nM. Also, the Kd in [6] was less than 0.2 nM. For the same molecule, the binning response in assay [7] was determined as 0.36; in assay [8] it was 0.09; in [9], 0.1; in assay [10], 0.11; in assay [11], 0.12; in [12], 0.13. Besides, the binning response in assay [13] was determined as 0.11; in assay [14] it was 0.1; in assay [15], 0.32; in assay [16], 0.32; in assay [17], 0.05.

B2: 1A11 VHH-Fc (Fc fusion)
chain: QVQLVESGGGLVQAGGSLRLSCEVSGSIYSINSMGWYRQAPGKQRELVAGIVSDGRINYADSVKGRFTISRAKNTVYLQMNSLKPEDTAVYYCAADRAFVYAGDYDYLGQGTQVTVSS
In assay [1], B2 displayed an EC50 of 0.18 nM. In addition, the “pseudovirus neutralization IC50” value in assay [2] was 6.6 nM; in assay [3] it was 4.1 nM; in assay [4], 6.4 nM; in assay [5] it was 42 nM. Also, in assay [6], the Kd was less than 0.2 nM. Moreover, the binning response in assay [7] was determined as 0.38; in assay [8] it was 0.1; in assay [9] it was 0.13; in assay [10], 0.13; in assay [11] it was 0.11; in [12], 0.14. The binning response in [13] is 0.14; in assay [14], 0.1; in assay [15], 0.35; in assay [16] it was 0.34; in [17], 0.06.

B3: 5A6 VHH-Fc (Fc fusion)
chain: QVQLVESGGGLAQAGGSLRLSCATSGLTFSMSAMGWFRQAPGNEREFVGVINWNGGSSRYADSVRGRFTISRDNAKNTVYLQMNSLKPEDTGVYYCAADALNIGTGEVNPRLYDYWGQGTQVMVSS
In [1], B3 came in with an EC50 of 0.14 nM. Besides, the “pseudovirus neutralization IC50” value in [2] came to 26 nM; in [3], 54 nM; in assay [4], 3.1 nM. Also, the Kd in assay [6] is less than 0.2 nM. Also, the binning response amounted to 0.37 in assay [7]; 0.09 in assay [8]; 0.11 in assay [9]; 0.09 in [10]; 0.09 in assay [11]; 0.12 in assay [12]. The binning response in [13] amounted to 0.1; in assay [14], 0.09; in assay [15], 0.39; in [16], 0.35; in assay [17] it was 0.03.

B4: 19E10 VHH-Fc (Fc fusion)
chain: QVQLVESGGGLVQPGGSLRLSCVASGSTISINSMGWYRQAPGKAREMVATITNDGPIKYADPVKGRFTISRDNPKNTVYLQMNSLKPEDTAVYYCVADRAYWLAGEWEYWGQGTQVTVSS
Turning to B4, in assay [1], the 50% effective concentration (EC50) came out at 0.03 nM. Besides, the “pseudovirus neutralization IC50” value was found to be 7 nM in assay [2], 3.1 nM in [3], 5.9 nM in assay [4] and 309 nM in assay [5]. In assay [6], the Kd was less than 0.2 nM. The binning response in assay [7] stood at 0.3; in assay [8], 0.09; in assay [9] it was 0.11; in assay [10] it was 0.12; in assay [11], 0.11; in assay [12], 0.12. Also, the binning response in assay [13] stood at 0.11; in [14], 0.08; in assay [15], 0.26; in [16] it was 0.22; in assay [17], 0.06.
